The results in this text go back to patent US20250101089A1.

This test deals with 6×His human TRIM21 PRYSPRY labelled with Alexa Fluor 488 (human) (UniProt P19474). The test can be described thus: fluorescence anisotropy; 5 nM Alexa Fluor 488-labelled human TRIM21 PRYSPRY, antibody titrated. (In general: Polarisation of emitted light reports the rotation of a fluorescent probe.)
Chain of UniProt P19474 (P19474 287-465 limits assumed): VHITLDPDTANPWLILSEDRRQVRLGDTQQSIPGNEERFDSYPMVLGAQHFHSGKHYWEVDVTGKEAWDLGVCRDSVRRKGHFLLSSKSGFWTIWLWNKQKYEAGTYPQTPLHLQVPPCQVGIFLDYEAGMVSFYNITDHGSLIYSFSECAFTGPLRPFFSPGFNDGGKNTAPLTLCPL
Regarding “9C12 N297A T256P (mouse-human chimeric, human IgG1 Fc) (antibody)”, the Kd (commonly a measure of binding affinity in units of concentration) amounted to 0.467 nM.
The substance “9C12 T256P (mouse-human chimeric, human IgG1 Fc) (antibody)” returned a Kd of 1 nM and a fold increase in affinity against 9C12 WT of 10 fold.
Consider “AP422 N297A (mouse-human chimeric, human IgG1 Fc region) (antibody)”, for which the Kd was 14 nM.
The same measure, in the same setting: next, “AP422 N297A T256P (mouse-human chimeric, human IgG1 Fc region) (antibody)”: 0.9 nM; “AP422 NALALA (N297A, L234A, L235A; mouse-human chimeric, human IgG1 Fc region) (antibody)”: 29 nM; “AP422 NALALA T256P (mouse-human chimeric, human IgG1 Fc region) (antibody)”: 0.1 nM.
In turn, “AP422 T256P (mouse-human chimeric, human IgG1 Fc region) (antibody)” came in with a Kd of 0.7 nM.
